Biological target: HLA-A*02:01 (Homo sapiens, UniProt P04439, D140Y/D185E/D98H/E176V/E277Q/G131W/G231S/I119V/I121R/I166T/I218V/L300P/L318F/N151K/N90K/P208A/P217A/Q86G/Q94H/R138H/R169H/T345S)
Experiment: MHC binding assay (UV-ligand exchange, β2m ELISA, peptide exchange yield)
Conditions: MHC class I binding score; binding to HLA-A*02:01 ranged by peptide exchange yield (UV-ligand exchange, β2m ELISA)
Procedure, shortened: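 Peptide–HLA-A*02:01 complexes were formed by UV-mediated exchange of a UV-cleavable ligand for the test peptide. Exchange yield was measured by capturing complexes on streptavidin, detecting with HRP anti-β2m antibody (1 h, 37°C) and reading TMB absorbance at 450 nm.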

Row | Substance | Peptide exchange
1 | 99 (ALVSKGLATV; listed as Homo sapiens) [compound 99] | “++” (≧20% = ++)
2 | 88 (FLLVGDLMAV; listed as Homo sapiens) [compound 88] | “+++” (≧50 = +++)
3 | 114 (SLVGEPILQNV; listed as Homo sapiens) [compound 114] | “++” (≧20% = ++)
4 | 81 (FLFSQLQYL; listed as Homo sapiens) [compound 81] | “++” (≧20% = ++)
5 | 265 (LLFGGTKTV; listed as Homo sapiens) [compound 265] | “++” (≧20% = ++)
6 | 154 (ALDDGTPAL; listed as Homo sapiens) [compound 154] | “++” (≧20% = ++)
7 | 106 (LLYDAVHIVSV; listed as Homo sapiens) [compound 106] | “+++” (≧50 = +++)
8 | 116 (YHIDEEVGF; listed as Homo sapiens) [compound 116] | “+” (≧10% = +)
9 | 151 (KILQQLVTL; listed as Homo sapiens) [compound 151] | “+++” (≧50 = +++)
10 | 20 (RMIEYFIDV; listed as Homo sapiens) [compound 20] | “+++” (≧50 = +++)
11 | 87 (ALPEAPAPLLPHIT; listed as Homo sapiens) [compound 87] | “++” (≧20% = ++)
12 | 182 (MLLEAPGIFL; listed as Homo sapiens) [compound 182] | “+++” (≧50 = +++)
13 | 13 (YLMDESLNL; listed as Homo sapiens) [compound 13] | “+++” (≧50 = +++)
14 | 142 (FLFATPVFI; listed as Homo sapiens) [compound 142] | “+++” (≧50 = +++)
15 | 34 (ILVEADSLWVV; listed as Homo sapiens) [compound 34] | “+++” (≧50 = +++)
16 | 210 (LLLNAVLTV; listed as Homo sapiens) [compound 210] | “++” (≧20% = ++)
17 | 107 (FLQPVDDTQHL; listed as Homo sapiens) [compound 107] | “+++” (≧50 = +++)
18 | 23 (VLLDDIFAQL; listed as Homo sapiens) [compound 23] | “+++” (≧50 = +++)
19 | 179 (KVLNELYTV; listed as Homo sapiens) [compound 179] | “+++” (≧50 = +++)

Row | Substance | Peptide exchange
20 | 94 (YLIDIKTIAI; listed as Homo sapiens) [compound 94] | “++” (≧20% = ++)
21 | 219 (KLSDIGITV; listed as Homo sapiens) [compound 219] | “+++” (≧50 = +++)
22 | 270 (LLLDEEGTFSL; listed as Homo sapiens) [compound 270] | “++” (≧20% = ++)
23 | 140 (YMDAPKAAL; listed as Homo sapiens) [compound 140] | “++” (≧20% = ++)
24 | 92 (YLIPFTGIVGL; listed as Homo sapiens) [compound 92] | “++” (≧20% = ++)
25 | 74 (ALLDPEVLSIFV; listed as Homo sapiens) [compound 74] | “+++” (≧50 = +++)
26 | 6 (VLVSDGVHSV; listed as Homo sapiens) [compound 6] | “+++” (≧50 = +++)
27 | 222 (NLIENVQRL; listed as Homo sapiens) [compound 222] | “++” (≧20% = ++)
28 | 147 (SLLEAVSFL; listed as Homo sapiens) [compound 147] | “+++” (≧50 = +++)
29 | 35 (KINDTIYEV; listed as Homo sapiens) [compound 35] | “+++” (≧50 = +++)
30 | 159 (GLVGNPLPSV; listed as Homo sapiens) [compound 159] | “++++” (≧75% = ++++)
31 | 93 (LLQAIKLYL; listed as Homo sapiens) [compound 93] | “++” (≧20% = ++)
32 | 164 (ALLPQPKNLTV; listed as Homo sapiens) [compound 164] | “+++” (≧50 = +++)
33 | 223 (ALLENIALYL; listed as Homo sapiens) [compound 223] | “+++” (≧50 = +++)
34 | 243 (LLLNELPSV; listed as Homo sapiens) [compound 243] | “+++” (≧50 = +++)
35 | 226 (MLYVVPIYL; listed as Homo sapiens) [compound 226] | “++” (≧20% = ++)
36 | 51 (LLPDLEFYV; listed as Homo sapiens) [compound 51] | “++++” (≧75% = ++++)
37 | 262 (LLWGDLIWL; listed as Homo sapiens) [compound 262] | “+++” (≧50 = +++)

The next lines start with the values.

Row | Peptide exchange | Substance
38 | “++” (≧20% = ++) | 522 (TLWYRSPEV; listed as Homo sapiens) [compound 522]
39 | “+” (≧10% = +) | 520 (LAVHPSGVAL; listed as Homo sapiens) [compound 520]
40 | “+++” (≧50 = +++) | 462 (KLAKQPETV; listed as Homo sapiens) [compound 462]
41 | “+++” (≧50 = +++) | 345 (VIWKALIHL; listed as Homo sapiens) [compound 345]
42 | “++++” (≧75% = ++++) | 348 (ILLDVKTRL; listed as Homo sapiens) [compound 348]
43 | “++” (≧20% = ++) | 409 (LLDAMNYHL; listed as Homo sapiens) [compound 409]
44 | “++++” (≧75% = ++++) | 289 (VLLEIEDLQV; listed as Homo sapiens) [compound 289]
45 | “+++” (≧50 = +++) | 324 (FLYDEIEAEV; listed as Homo sapiens) [compound 324]
46 | “+++” (≧50 = +++) | 594 (IMLKGDNITL; listed as Homo sapiens) [compound 594]
47 | “+++” (≧50 = +++) | 577 (VMFEDGVLMRL; listed as Homo sapiens) [compound 577]
48 | “+++” (≧50 = +++) | 284 (ILLSQTTGV; listed as Homo sapiens) [compound 284]
49 | “+++” (≧50 = +++) | 508 (ILAQEQLVVGV; listed as Homo sapiens) [compound 508]
50 | “+++” (≧50 = +++) | 467 (FLAKDFNFL; listed as Homo sapiens) [compound 467]
51 | “+++” (≧50 = +++) | 488 (FLAEDPKVTL; listed as Homo sapiens) [compound 488]
52 | “+++” (≧50 = +++) | 502 (RLLAQVPGL; listed as Homo sapiens) [compound 502]
53 | “+++” (≧50 = +++) | 551 (KLYESLLPFA; listed as Homo sapiens) [compound 551]
54 | “+++” (≧50 = +++) | 515 (LLQELVLFL; listed as Homo sapiens) [compound 515]
55 | “++++” (≧75% = ++++) | 371 (FLQAHLHTA; listed as Homo sapiens) [compound 371]
56 | “+++” (≧50 = +++) | 285 (QLLHVGVTV; listed as Homo sapiens) [compound 285]
57 | “+++” (≧50 = +++) | 473 (AMATESILHFA; listed as Homo sapiens) [compound 473]
58 | “+++” (≧50 = +++) | 589 (KLYPQLPAEI; listed as Homo sapiens) [compound 589]

Row | Peptide exchange | Substance
59 | “+++” (≧50 = +++) | 352 (SLLELLHIYV; listed as Homo sapiens) [compound 352]
60 | “++” (≧20% = ++) | 389 (LLADVTHLL; listed as Homo sapiens) [compound 389]
61 | “++” (≧20% = ++) | 408 (VLDDSIYLV; listed as Homo sapiens) [compound 408]
62 | “++” (≧20% = ++) | 516 (AVGPASILKEV; listed as Homo sapiens) [compound 516]
63 | “+++” (≧50 = +++) | 528 (SVAEGRALMSV; listed as Homo sapiens) [compound 528]
64 | “+++” (≧50 = +++) | 341 (SQIALNEKLVNL; listed as Homo sapiens) [compound 341]
65 | “+++” (≧50 = +++) | 317 (SLAALVVHV; listed as Homo sapiens) [compound 317]
66 | “+++” (≧50 = +++) | 498 (KLWTGGLDNTV; listed as Homo sapiens) [compound 498]
67 | “+++” (≧50 = +++) | 364 (LLQNEQFEL; listed as Homo sapiens) [compound 364]
68 | “+++” (≧50 = +++) | 493 (GLLGEKTQDLIGV; listed as Homo sapiens) [compound 493]
69 | “++++” (≧75% = ++++) | 620 (KLLNKIYEA; listed as Homo sapiens) [compound 620]
70 | “+++” (≧50 = +++) | 596 (ALLDQTKTLAESAL; listed as Homo sapiens) [compound 596]
71 | “+++” (≧50 = +++) | 336 (ILLTAIVQV; listed as Homo sapiens) [compound 336]
72 | “++” (≧20% = ++) | 526 (RLAEVGQYEQV; listed as Homo sapiens) [compound 526]
73 | “++” (≧20% = ++) | 510 (KLYSVVSQL; listed as Homo sapiens) [compound 510]
74 | “+++” (≧50 = +++) | 362 (TLYGLSVLL; listed as Homo sapiens) [compound 362]
75 | “+++” (≧50 = +++) | 554 (LLMPSSEDLLL; listed as Homo sapiens) [compound 554]
76 | “+++” (≧50 = +++) | 325 (FIMPATVADATAV; listed as Homo sapiens) [compound 325]
77 | “++” (≧20% = ++) | 279 (ALWGGTQPLL; listed as Homo sapiens) [compound 279]
78 | “+++” (≧50 = +++) | 439 (YLLQEIYGI; listed as Homo sapiens) [compound 439]

Source: patent US20170002055A1, “Novel peptides and combination of peptides for use in immunotherapy against ovarian cancer and other cancers” (immatics biotechnologies GmbH, priority 2015, published 2017)
